This note sets out measurements from the DeepSol protein solubility set.

The nature of the data set: soluble on expression in E. coli; label from the status in PepcDB or PDB records.
Regarding “MAHHHHHHMPPFFEARAEKLMLAAQEECRLLAAQLEKSRAARAASTCGPQGKIRAAPATAPVAATSPPSPRRTYSAATATVAVKGLSIGSSTSTSPDRAGSPSAAPPSASPARVVIPTAATHKEGTLLHLVRGSGLFGSGSRSFVPHYIAVSGSAGISWYASEAEYRQNPSRPLGHADFWIETFNSRGSRFKKAAVCWPLILPDDCPEAKDANKTYFAVDYYTPDEAREQVVLAASSPAERDEWVQLLTKYIDLYLAPRAESEELQHIPRGAEVPLHRSGVIEGEAPGGNIL”, the “soluble on expression in E. coli” value is “soluble”.
For “MAHHHHHHMPQRSHVPLASPSPLNAPPPLTSRPGPVNYCGAHAEPAAGLNYTHHDDHRSVFRDQASCDPSPSQRALHQQQVHRPRAVSPGPHDGSAPHVSALVARGAVIRADELETILDEQNYIWQMEEYRFRTERQKRLTALQHRQHELMLESARYDQAVAEVERQLARERQRLEELRQMMARNATTSCSPIDREHGLQDPPTAMSDAPHVIARNSSAMHHGQARDHAYSAPHDAPYFPTGASDGLSAMNEEEVIAEV”, the “soluble on expression in E. coli” value is recorded as “not soluble”.
As for “MAHHHHHHMPRNRSSGDDGGGGGKRGGRYAAVVEKGENAWKREWSSFMSGVNLKRLRDGTSGVTLKASADIERQLVAREAAPSSSSVAGEHDNGNDVEVNADGIPLGAIASHASFSYLFSSPAERRAERDARERAEAERRQAHKRELMAKKDPLSVLSKHQRAMHNAEQRGLQLDGMTRKERRSFLHLTVTEAQRKAEEQSREFKLHDLMDEKLAWYQQGPHPIDLIAEKLVRRKAEKKGKQLGLKYNYLAPHPSWLAKRAQRRRESLLVGLGKRLIFLERVTGEDKDDATTVPSSEVMVTDPLHHLTVPLSEMGRLLGQHGSASLSAAAAAAADADALVTAAAGSSSGDDIEDVKGADEEGAQHLGGEVDRGHRGDVTAARKKAVSASSAASSAGGCSSASPGKRASGEAGDDGVGNDAAQMRLPDVVVLQDPSRIATSLVRTVARDRTTALAIQQINRTTNFLSSGLVKGPSLRPEDALPGNGLSPRGLGAAPAAAALTPSPKSSMVAASMQDSAANSTKGAATTSRGASAAGRGRRRVRVADGEEEGGERRRHRRGADVSAGESQTKTSKPTASPSPRPRGARPPPTHTHELRDITSRSGPSKSQGGQVSSSKTKRQRANSRYD”, the entry is “not soluble”.
For “MAHHHHHHMPRRFVAEYVTKHLCGVRVLESFAETSTATGVIGTHNGSFHCDEAMACGLLRCSQNFGQSNILRSRDPNALERCNIVVDVGSVYDEATLRFDHHQPSFHDTMKTPKAAYQTRLSSAGLVYKHFGREIIQGYVESALASPYRVKLLDATKWGTDKKKLSEQELDILFDIVYKNFVEHIDGIDNGVNAYGPAETEGEEGAVPVSSSSPSCVKKYNVSTTLSARIGNLMPWWNEEGNGKVENENAAFLQAMELATSEFFDSVHYHVFAWMPARGIVRAAFLEAMNVHPSGRIVVFKDCFCPWKEHLLELEEEHGKVGHVLYVLFADKKGWRVQAVPKEASGFENRKSLPWRGLRDEELSQASGIEGGIFVHVSGFIGGNKTYEGALQMAVKALTVVN” the value was “not soluble”; for “MAHHHHHHMQLLHAQQEGMKNIRQSEASHSDENDKKERGTRSGSTTGTCSEFDVCAVYDDDDVPLAAQFVRSCPPLTDPSWAMEELLRINSHVAVWTGSALPNSVWALPGSGHCPFGSTDADFARIR”, “not soluble”.
As for “MAHHHHHHMQLQADLTQRTDSVNAIQRNFERLSAMHHAEQLELRRLRLLEKTRSEVAPDGLDAATRQLESVLAEMRHKALEQQTTFVQMEVDLQAANSSCALQQGIARLIASHADGFRDVLQAEAVAHSQLYQSAMSERAIIGSRNEATQQQLLCKDVAQLVADHQAQIVTKLIRGGAAESCRLQKSLAQVSTATVQELVRQGLRETAEAVHQYVASIHAADQERVLAEAEGQRDRERLRLALGELLRLRLRATEEAEATARQALLFGALQACATAQRAAEEVRLLTANADAAAAATRSSWEVTAALLTRRVSDWHDAADMRLVDFHDTIEASMAEKARERDAQSQQKTQELLLEERKRLENLHASQMQTMQVDWRRQRDAVQQSHAMQLEQVRSDLVAQVQVAEDRRVAAERRTGAMEAALIQLKRDHAAEVQAVEAHWRSAVSDAGRHCEQRWRTMLEVYQEGQKAHRGAMLQLFVDFLCTRGQCVYEEQAERAALCRSHWRNQTQHLREEQAAVMQHGVATADLLERMRCHKEDEAASRAVLHASEASDWAALVRKEAAHNAQAHHAVSMAAAAAGLEGLRAEMAGREVRWGQRLDALEADLRRAQQKCLGVVRRASDAVVAAQEAQAALQATQRDFAAYRCGVSAAAQRIEVAESATESACCCSLCLQLYCQPVACVPCGHIYCANCLLRHARNRSLSSVTSSFASAAGASTSENGAVGARAALEVTHWLRGKSTPHAFLFCPECASATVSTVVELPILGELTAKYDYKKRSLAVLLAELR”, the “soluble on expression in E. coli” value is “not soluble”.
As for “MAHHHHHHMQLSRYSPPPSSSSSSLLSTVMQAKDVVTRLGPSERFPGLCGVFLTKPIKKFHPIEVLPTAASAAATTTTAATADSSAERPDASRSPTSAIVSQAPPFVLNLAFAPRHSISLRRFLALRHMFSTSAYLHVATEDGWYLVAPSSAAPLCPDVTGLQAWCCRHHHRYLKHAATAVTAATSSSTPSSRAPRCSTHTGIAKLEAALDNGEELSEEQLQRLAAQEKAFFAHTPENEEADIDDDTDETDDMPAVREPRHPLSQKTAAPTAETLRKRSAGAPASAFGLSPPLIPEAHLFDINDGVAWLLPPSDDLANHEYWKSHRQRMALYESTGDADAAEQREALLATLRADPAIAQHLSSEQELYAAAEALFQALKHKANVTLNVDADTGLLTLVPLRDLHAGEELLLHYGREWWTGRLLFSLLLSVSDAEMPQIRWIEQLFDHAVDRSEPFPLLIVAHEQRKRPRRGCSGGAKVRKGLKNESSGDGDEQQQQSTQCASLTKPHGDSAETSSTTAMTAELPVSQRKLGRAVLYNTVTHKRATDAAVLAFAVRRSCIEPCFLSRLLAGDAAGGVEPVFYLSEPDKEVPMRVLRRVLLASLRGTTASAQRSIPHKDESASVVAGSAVADTAAAVVDQGAPPQTSTNTGGDGDDGDDAVFSV”, the entry is “soluble”; as for “MAHHHHHHMQVTETVLARAVIKRRSPQLWGAPGAPIIRMRGHHVVWKFQSYDLVVEHTHKRRNSDIRLLHYLGKHCPHPQKSLWSPDTPVAQDRHLFMLTTVDIDAFKYWFGVKRCRLSMKPWALLAKAGLLPPSLTQNSKIMPKPLFDKESLMRYYLANRKDEDVMAREKYLNYENSMVKTEEERAAERPVAPYL”, “soluble”; as for “MAHHHHHHMQWKKDDLFEGLRKLPRTPGELFGHRNKLNFILQKRFFIAPDMVELALNRQNGEQFNRCYAKLVMQAVAKFNNTTRSQLKVRVDPRLPKGLQLIQPDDKDTGANLKSKKSEKAASGRLNAFSNTTSGQQRKPQQRQQSRYCSPQSGGVSPRVVMPIDPAERDCLYATYLRARTPQSGTPDYSDMMLQSPSCATDGKTTMFSEDGSSALRSATRRSAGDVHFATPPVFKGFERTLELTPADSPTESLPLHF”, “not soluble”.
As to “MAHHHHHHMQYINDEGYRIDGRKNDECRLIKISLGNGNELIDVDGFSFFEIGNTKLFAYIQGPNEYRRPDEKCLVKCNVFLSPFNILEKKRKKSKDNVTREISSYIRNICNHIILLDLYKNSEINIFLYIIERDGGLKAAAVNTCILALIDAGIAIKYFISASSVLYLQNNIIVDGNQFEVNSGSPELTLAIDMSSNNIVLLEFDAEVPIDIFQSMLKTCAQACIHVGNIMKLSIKENAIKLLSLNSILNT”, the “soluble on expression in E. coli” value is “not soluble”.
